# Data published in the nanobody polyreactivity screen of Harvey et al. (2022).
# Test: yeast display, Sf9 membrane polyspecificity reagent, FACS + sequencing; frameworks hold sequencing errors
# How it was run: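 Galactose induction of a Saccharomyces cerevisiae BJ5465 synthetic nanobody display library ran 36–48 hours. The cells were then stained for 1 hour at 4 °C with 10% biotinylated, detergent-solubilized Sf9 membrane reagent, pulled down on streptavidin microbeads and FACS-sorted into low and high (top ~1%) gates on expression and reagent-binding fluorescence. Labels for polyreactivity follow the gate of origin.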
row,Sequence,polyreactivity (PSR sort gate)
1,QVQLVESGGGLVQAGGSLRLSCAASGFTFRYNAMGWYRQAPGKERELVAAITNGGSTYADSVKGRFTISRDNAKNTVYLQMNSLKPEDTAVYYCAADYFVLTYYLWSYSPYKSFYYWGQGTQVTLSS,low polyreactivity
2,QVQLVESGGGLVQAGGSLRLSCAASGSTFGSYAMGWYRQAPGKERELVAAISRGGGSTYYADSVKGRFTISRDNAKNTVYLQMKSLKPEDTAVYYCAASFSRYGLVLYSIEDYWGQGTQVTVSS,high polyreactivity
3,QVQLEESGGGLVQAGGILRLSCAASGFTLVYYAMGSYRQAPGKERELVATISGNGGRTYYADSVKGRFTISRDNAKNTDNLQMNSLKPEDTAVYYCAALLYIGSVGYDYWGQGTQVTVSS,low polyreactivity
4,QVQLVESGGGLVQAGGSLRLSCAASGSIIWRNAMGWYIQAPGKERELVAAISYSGGSTYYADSVKGRFTISRDNAKNTVYLQMNSLKPEDTAVYYCAARTSYYVYRHPSGRYDYWGQGSQVTVSS,low polyreactivity
5,QVQLVESGGGLVQAGGSLRLSCAASGFIFNYNAMGWYRQAPGKERELVAAIRTSSGSTYYADSVKGRFTISRDNAKNTVYLQMNSLKPEDTAVYYCAKTRYSTYSPIYYYWGQGTQVTVSS,high polyreactivity
6,QVQLEESGGGLDQAGGSLRLTCAASGSTFLFYAMGWYRQAPGKESELVAAIRWSGGSTYADSVKGRFTISRDNAKYTVYLPMNSLKPEDTAVYYCATTYRPTFRRHYKYWGQGTQVTVSS,low polyreactivity
7,QVQLVESGGGLVQAGGSLRLSCAASGSIFRGNAMGWYRQAPGKERELVAAITYNDGGTYYADSVKGRFTISRDNAKNTVYLQMNSLKPEDTAVYYCAAVGTGNKSILYDYWGQGTQVTVSS,low polyreactivity
8,QVQLVESGGGLVQAGVSLRLICAASGSIFITNFMGWYRQAPGKERELVAVISASGGSTYYADSVKGRFTISRDNAKNNVYLQMNSMKPEDTAVYYCARTQRRYSYGQMGYWGQGTQVTVSS,high polyreactivity
9,QVQLVESGGGLVQAGGSLRLSCAASGSTFDYYAMGWYRQAPGKERELVAAISSTDGSTFYADSVKGRFTISRDNAKNTVYLQMNSLKPEDTAVYYCAVVGYYYPWPNGYDYWGQGTQVTVSS,low polyreactivity
10,QVQLEESGGGLVQAGGSLRLSCAASGIIFRFYTMGWYRQAPGKERELVAVITWSGGSTYYADSVKGRFSISRDNAMNTVYLQMNSLKPEATAVYYCNAEYTYGNSVYKYDYWGQGTQVTVSS,low polyreactivity
11,QVQLVESGGGLVQAGGSLRLICAASGRIFRYNALGWYRQAPGKERELVATISGTSRTKYADSVKGRFTISRDNAKHTVYLQMNSLKPEDTAVYYCAARRYGWGRAQSSASYDHWGQGTQVTVSS,high polyreactivity
12,QVQLVESGGGLVQAGGSLRLSCAASGRIFIIYAMGWYRQAPGKERELVAAINRGATTNYADSVKGRFTISRDNAKNTVYLQMNSLKPEDTAVYYCAARGVAKLRRVGYWGQGTQVTVSS,high polyreactivity
13,QVQLVESGGGLVQAGGSLRLSCAASGRIFYYYAMGWYRQAPGKERELLAAITRGGGTYYADSVKGRFTISRDNAKNTVYLQMNSLKPEDTAVYYCAKRGPPESHHPYRYRFDYWGKGTQVTVSS,low polyreactivity
14,QVQLVESGGGLVQAGGSLRLSCAASGSTLYHNAMGWYRQAPGKERELVAAITRGGSTYYADSVKGRFTISRDNAKNTVYLQMNILKPEDTAVYYCAVAVLVYYGKYYPYKMYYWGQGTQVTVSS,high polyreactivity
15,QVQLVESGGGLVQAGGSLRLSCAASGSTFAGNAMGWYRKAPGKERELVAAITFSGGRTDYADSVKGRFTISRDNAKNTVYLQMNSLNPEDTSVYYCAAPADDTVHYQNYYWGQGTQVTVSS,low polyreactivity
16,QVQLVESGGGLVQAGGSLRLSCAASGIIFRYNAMGWYRQAPGKERELVADITFSVGSTNYADSVKGRFTISRDNAKNTVYLQMNSLKPEDTAVYYCAAKFHSTYGNDDWGQGTQVTVSS,low polyreactivity
17,QVQLVESGGGLVQAGGSLRLSCAASGRIFAPYAMGWYRQAPGKEWQLVAAIRTSGGRTYYADSVKGRFTISRDNAKNTVYLQMNSLKPEDSAVYYCAPLAWSTGRTTTVYDYWGLGTQVTVSS,high polyreactivity
18,QVQLVESGGGLVQAGGSLRLSCAASGLTFIYYSMGWYRQAPGKERELVAAISVSGGSTYYADSVKGRFTISRDNAKNTVYLQMNSLKPEYTAVYYCAGDWFVHKPRYQYSFDYWGQGTQVTVSS,low polyreactivity
19,QVQLEESGGRLVQAGCSLRLSCAASGYIFRKYAMGWYRQAPGKEWELVADISSSGGSTYYADSVKGRFTISRDNAKNTVYLQMNSLKPEDTAGYYCAKDRKSSRRINRMDYWGQGTQVTVSS,high polyreactivity
20,QVQLVESGGGLVQAGASLRLSCAASGSIFIWYAMGWYRQAPGKERELVAAITSSGSTNYADSVKGRFTISRDNAKNPVYLQMNSLKPEDTAVYYCAAEYTYYTYNLNYWGQGTQVTVSS,low polyreactivity
21,QVQLVESGGGLVQAGGSLRLSCASSGSTFSANTKGWYRQAPGKERELVAAINSSGGSSTYYADSVKGRFTISRDNAKNTVYLQMKSLKPEDTAVYYCAAENSVPRGVLGGEFDYWGQGTQVTVSS,low polyreactivity
22,QVPLVESGGGLVQAGGSLRLSCAASGFTFGWYAMGWYRQAPGKERELVAAISSNGGRTSYADSVKGRFTISRDNAKNTVYLQMNSLKPEDTAVYYCNADDRYIWTYWGWTIYDYWGQGTQVTVSS,high polyreactivity

row,Sequence,polyreactivity (PSR sort gate)
1,HVQLVESGGGLVQAGGSLRLSCAASGSIFDSYVMGWYRQAPGTERELVAAITYSGGSTYADSVKGRFTISRDNAKNTVYLQMNSLKPEDTAVYYCAAASYFYLYLLEDYWGQGTQVTVSS,low polyreactivity
2,QVQLVESGGGLVQAGGSLRISCAASGITFYRYTMGWYRQAPGKERELVAAISRSGSSTYYADSVKGRFTISRDNAKNTVDLQMNSLIPEDTAVYYCASRFGDMGYWGQGTQVTVSA,high polyreactivity
3,QVQLVESGRGLVQAGGSLRLSCAASGRIFGRNTIGWYRQAPRKEREMVAVISFRGGSTYADSVKGRFTISRDNAKNTVYLQMNSLKPEDTAVYYCARTAYSTRPYRFDYWGQGTQVTVSS,high polyreactivity
4,QVQLVESGGGLVQAGGSLRLSCAASGFIIAGYAMGWYRQAHGKEMELVAAISSRGGSTYYADSVKGRFTISRDNAKNTFYLQMNSLKPEDTSVYYCARTTPTGRQYRRYDYWGQGTQVTESS,low polyreactivity
5,QVQLVESGGGLVQAGGSLRLSCAASGSTFYLYGMGWYRQAPGKERELVAAITYSGGSTYYADSVKGRFTISRDNAKNTVYLQMNSLKPEDTAVYYCNARSQWRSSRFYYWGQGTQVTVSS,high polyreactivity
6,QVQLVESGGGLVQAGGSLRLSCAASGSIFSSNAMGWYRQAPGKERELVAAITVSGGSTYYADSVKGRFTISRDNAKNTVYLQMNSLKPEDTAVYDCAVPVTYYFDGSWWRYDYWGQGTQVTVSS,high polyreactivity
7,QVQLVESGGGLVQAGGSLRLSCAASGSIFITYAMGWYRQAPGKERELVAAIRDSGDRTYYADSVKGRFTISRDNAKKTVYLQMNSLKPEDTAVYYCNARWQEPLKYDYWGQGTQVTVSS,low polyreactivity
8,QVQLVESVGGLVQAGGSLRLSCAASGFIYGWNAMGWYRQAPVKERELVASIRSSGGTTYADSVKGRFTISRDNAKNTVYLQMNSLKAEDNAVYYCARRVLGLLELDYWGQGTQVTVSS,low polyreactivity
9,QVKLVESGGCLVQAGCSLRLSCAASGRTFHGYAMGWYRQAPGTERELVAAITVSGDSTYYADSVKGRFTISRDNAKNTVYLQMNSLKPEDTAVYYCNASFREPSTPVYLVAFDYWGQGTQVTVSS,low polyreactivity
10,QVQLVESGGGLVQAGGSLRLSCAASGSILIYNAMGWYRQARGKERELVAAISTSGGSTYYADSVKGRFTISRDTAKNTVYLQMNSLKPEDTAVYYCAARAYPYGYWGQGTQVTVSS,low polyreactivity
11,QVQLVESGGGLVQAGGSLRLSCAASGSIFINNTMGWYRQAPGKERELVAAISITGGSTYYADSVKGRFTISRDNAKNTVYLQMNSLKPEDTAVYYCAADPLQLYDYNYWGQGTQVTVSS,low polyreactivity
12,QVQLVESGGGLVQAGGSLRLSCAASGSIYFLYAMGWYRQAPGKERELVAAISWSVDRTYYADSVKGRFTISRDNAKNTVYLQMNSLKPEDTAVYYCAAVHWWSSSLRMYYWGQGTQVTVSS,low polyreactivity
13,QVQLVESGGGLVQAGGSLRISCAASGSTFDPNAMGWYRQAPGKERELVAVIDSGDGTTYYADSVKGRFTISRDIAKNTVSFQMISQKREDTAVYYCAVDESTSYYDDHEDYWGQRTQVTVSS,low polyreactivity
14,QVQLVESGGGLVQAGGSLRLSCAASGSTFDYYTMGGYRQAPGKERELVAAISSSGGSTYYADSVKGRFTISRDNAKNNVYLQMISLKPEDTAVYYCAADASPYGDVYDYWGQGTQVTVSS,low polyreactivity
15,QVQLVESGGVLDQAGGSLRLSCAAAGITSPDNVMGWYRKAPGKEFDLVAANSGSGGSTYYADYVQGRFTISRDNAKNSVYLQINILKPEDTAVYYCAADVEYKVFPGDYWGQGTQVTVSS,low polyreactivity
16,QVQLVESGGGLVQAGGSLRLRCAASGRTFPSYTMGWYRQAPGKERELVAAITWTGGSTYYADSVKGRFTISRDNAKNTVYLQMNSLKPEDTAVYYCADYDYWGQGTQVTVSS,low polyreactivity
17,QVQLVESGGGLVQAGGSLRLSCAASGRIFVYYTMGWYRQAPGKERELVAAISTGGRTHYADSVKGRFTISRDNAKNTVYLQMNSLKPEDTAVYYCNAASWNGGLFQTKYGYWGQGTQVTVSS,high polyreactivity
18,QVQLVESGGRLVQAGGSLRLSCAASGRIFVVNAMGWYRQAPGKEREFVAAITDNTGSTYYADSVKGRFTISRDNAKNTGYLQMNSLNPEDTAVYYCAAYGYSKDLWNFYYWGQGTQVTVSS,low polyreactivity
19,QVQLVESAGGLVQAGGSLRLSCAASGFIFPRYAMGWYRPAPGKERELVAAISSSGGSTYYADSVKGRFTISRDNAKNTVYLQMNSLKPEDTAVYYCAARYQSDYWRYYYWGQGTQVTVSS,high polyreactivity
20,QVQLVESGGGLVQAGGSLRLSCAASGSIFYGYVMGWYRQAPGKERELVAAISRSGGRTYYADSVKGRFTISRDNAKNTVYLQMNSQKPEDTAVYDCNARQAGTPYKYAYYGRYYWGQGTQVTVSS,high polyreactivity
21,QVQLVESGVGLVQAGGSLRLTCAASGITFLYNAMGSYRQAPGKERELVAVITRGGITNYADSVKGRFTISRDNAKNTDSLQMYRLNPEDTAVYDWAAYRGIYSRYDYWGQGTQVNVSS,high polyreactivity
